± gives the uncertainty stated by the source.
Assay: self-splicing fitness, log relative to wild type (ln ratio); higher = more splicing; Tetrahymena group I intron in knt gene, E. coli kanamycin selection, DiMSum; sequences stand for … in CUCUCU…GGAGGGAAAAGUUAUCAGGCAUGCACCUGGUAGCUAGUCUUUAAACCAAUAGAUUGCAUCGGUUUAAAAGGCAAGACCGUCAAAUUGCGGGAAAGGGGUCAACAGCCGUUCAGUACCAAGUCUCAGGGGAAACUUUGAGAUGGCCUUGCAAAGGGUAUGGUAAUAAGCUGACGGACAUGGUCCUAACCACGCAGCCAAGUCCUAAGUCAACAGAUCUUCUGUUGAUAUGGAUGCAGUUCACAGACUAAAUGUCGGUCGGGGAAGAUGUAUUCUUCUCAUAAGAUAUAGUCGGACCUCUCCUUAAUGGGAGCUAGCGGAUGAAGUGAUGCAACACUGGAGCCGCUGGGAACUAAUUUGUAUGCGAAAGUAUAUUGAUUAGUUUUGGAGUACUCGUGGUCG
Summary of the method: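 DiMSum derived fitness as the error-weighted combination of fold changes across replicates, kanamycin versus no kanamycin, normalised to wild type. E. coli BL21(DE3) held the library, which randomised all eight P1ex-region intron nucleotides within the knt kanamycin-resistance gene on pET-22b(+). Six replicate transformations grew overnight at 37°C or 30°C on LB agar with or without 25 μg/mL kanamycin, also containing 100 μg/mL carbenicillin, 50 μM IPTG and 0.2% rhamnose, and pooled colonies were amplicon-sequenced on an Illumina HiSeq 2500.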

## GGUCAGCAAUAUUACGUCCA
30 °C
  self-splicing fitness (ln): -1.63 ± 0.11
37 °C
  self-splicing fitness (ln): -1.02 ± 0.1

## AUUCAGCAAUAUUACGUAGU
30 °C
  self-splicing fitness (ln): -0.994 ± 0.047
37 °C
  self-splicing fitness (ln): -0.0257 ± 0.069

## GUUCAGCAAUAUUACGAUUC
30 °C
  self-splicing fitness (ln): 0.118 ± 0.095
37 °C
  self-splicing fitness (ln): 0.523 ± 0.11

## ACUCAGCAAUAUUACGACUU
30 °C
  self-splicing fitness (ln): -0.301 ± 0.054
37 °C
  self-splicing fitness (ln): 0.0543 ± 0.073

## UUGGAGCAAUAUUACGGAGC
30 °C
  self-splicing fitness (ln): -1.47 ± 0.38

## GCCCAGCAAUAUUACGAUCC
30 °C
  self-splicing fitness (ln): -0.561 ± 0.13
37 °C
  self-splicing fitness (ln): -0.336 ± 0.19

## UCUAAGCAAUAUUACGCCUU
30 °C
  self-splicing fitness (ln): -3.44 ± 0.36
37 °C
  self-splicing fitness (ln): -2.32 ± 0.27

## CGUAAGCAAUAUUACGAAUC
37 °C
  self-splicing fitness (ln): -2.06 ± 0.3

## AAGCAGCAAUAUUACGCCUA
30 °C
  self-splicing fitness (ln): 0.0257 ± 0.11
37 °C
  self-splicing fitness (ln): -0.183 ± 0.13

## ACACAGCAAUAUUACGGCAA
30 °C
  self-splicing fitness (ln): -1.49 ± 0.077
37 °C
  self-splicing fitness (ln): -0.943 ± 0.081

## UCUAAGCAAUAUUACGAUCU
30 °C
  self-splicing fitness (ln): -3.07 ± 0.23
37 °C
  self-splicing fitness (ln): -2.08 ± 0.2

## AUUGAGCAAUAUUACGAAUG
30 °C
  self-splicing fitness (ln): -2.9 ± 0.21
37 °C
  self-splicing fitness (ln): -3.15 ± 0.3

## GCGUAGCAAUAUUACGGCAU
30 °C
  self-splicing fitness (ln): -0.91 ± 0.061
37 °C
  self-splicing fitness (ln): -0.0121 ± 0.072

## UGCAAGCAAUAUUACGCUCC
30 °C
  self-splicing fitness (ln): -0.565 ± 0.2
37 °C
  self-splicing fitness (ln): -1.37 ± 0.34

## GUCAAGCAAUAUUACGAAGG
30 °C
  self-splicing fitness (ln): -4.64 ± 0.2
37 °C
  self-splicing fitness (ln): -3.95 ± 0.36

## GCAAAGCAAUAUUACGGUAA
30 °C
  self-splicing fitness (ln): -0.837 ± 0.12
37 °C
  self-splicing fitness (ln): -0.921 ± 0.13

## UUAAAGCAAUAUUACGCGGC
30 °C
  self-splicing fitness (ln): -2.74 ± 0.29
37 °C
  self-splicing fitness (ln): -1.03 ± 0.2

## GGGAAGCAAUAUUACGUUGC
30 °C
  self-splicing fitness (ln): -3.92 ± 0.42

## UCAUAGCAAUAUUACGGAGG
30 °C
  self-splicing fitness (ln): -3.54 ± 0.31
37 °C
  self-splicing fitness (ln): -2.82 ± 0.2

## CAUUAGCAAUAUUACGCAAU
37 °C
  self-splicing fitness (ln): -1.54 ± 0.43

## UAAUAGCAAUAUUACGAAUC
30 °C
  self-splicing fitness (ln): -4.21 ± 0.31
37 °C
  self-splicing fitness (ln): -2.34 ± 0.39

## GAGCAGCAAUAUUACGGCCU
30 °C
  self-splicing fitness (ln): -0.475 ± 0.07
37 °C
  self-splicing fitness (ln): -0.0538 ± 0.081

## UCUGAGCAAUAUUACGGGUU
30 °C
  self-splicing fitness (ln): -2.32 ± 0.17
37 °C
  self-splicing fitness (ln): -2.5 ± 0.24

## ACAAAGCAAUAUUACGUAUG
30 °C
  self-splicing fitness (ln): -3.01 ± 0.12
37 °C
  self-splicing fitness (ln): -2.13 ± 0.15

## CAGCAGCAAUAUUACGGGAA
30 °C
  self-splicing fitness (ln): -3.17 ± 0.33
37 °C
  self-splicing fitness (ln): -1.58 ± 0.16

## UGCAAGCAAUAUUACGUUCG
30 °C
  self-splicing fitness (ln): -0.427 ± 0.048
37 °C
  self-splicing fitness (ln): -0.226 ± 0.067

## CUUGAGCAAUAUUACGUGUC
30 °C
  self-splicing fitness (ln): -2.02 ± 0.22
37 °C
  self-splicing fitness (ln): -2.28 ± 0.26

## CUCCAGCAAUAUUACGGAAG
30 °C
  self-splicing fitness (ln): -3.34 ± 0.16
37 °C
  self-splicing fitness (ln): -3.14 ± 0.24

## GACAAGCAAUAUUACGAAGU
30 °C
  self-splicing fitness (ln): -4.61 ± 0.27
37 °C
  self-splicing fitness (ln): -2.18 ± 0.14

## GCAUAGCAAUAUUACGCUAC
30 °C
  self-splicing fitness (ln): -3.61 ± 0.34
37 °C
  self-splicing fitness (ln): -2.11 ± 0.27

## AAUCAGCAAUAUUACGGUAA
30 °C
  self-splicing fitness (ln): 0.0235 ± 0.065
37 °C
  self-splicing fitness (ln): 0.0455 ± 0.063

## ACGGAGCAAUAUUACGAAGG
30 °C
  self-splicing fitness (ln): -3.68 ± 0.21
37 °C
  self-splicing fitness (ln): -2.7 ± 0.27

## CCUCAGCAAUAUUACGAGAC
30 °C
  self-splicing fitness (ln): -3.31 ± 0.32
37 °C
  self-splicing fitness (ln): -2.88 ± 0.35

## AAGUAGCAAUAUUACGAGUC
30 °C
  self-splicing fitness (ln): -2.53 ± 0.18
37 °C
  self-splicing fitness (ln): -2.47 ± 0.3

## ACGAAGCAAUAUUACGUAUU
30 °C
  self-splicing fitness (ln): -3.11 ± 0.087
37 °C
  self-splicing fitness (ln): -2.18 ± 0.093

## GCAUAGCAAUAUUACGGCGG
30 °C
  self-splicing fitness (ln): -2.63 ± 0.19
37 °C
  self-splicing fitness (ln): -2.26 ± 0.37

## CACAAGCAAUAUUACGCUAC
30 °C
  self-splicing fitness (ln): -3.18 ± 0.19
37 °C
  self-splicing fitness (ln): -2.26 ± 0.18

## GCGCAGCAAUAUUACGAUAG
30 °C
  self-splicing fitness (ln): -2.97 ± 0.16
37 °C
  self-splicing fitness (ln): -0.857 ± 0.12

## CGCCAGCAAUAUUACGUCUU
30 °C
  self-splicing fitness (ln): -3.58 ± 0.25
37 °C
  self-splicing fitness (ln): -1.45 ± 0.2

## GUUCAGCAAUAUUACGGGGC
30 °C
  self-splicing fitness (ln): -2.68 ± 0.16
37 °C
  self-splicing fitness (ln): -2.78 ± 0.21

## CGGGAGCAAUAUUACGGCUG
30 °C
  self-splicing fitness (ln): -2.43 ± 0.25
37 °C
  self-splicing fitness (ln): -2.14 ± 0.34

## AAGGAGCAAUAUUACGGACC
30 °C
  self-splicing fitness (ln): -2.55 ± 0.17
37 °C
  self-splicing fitness (ln): -2.97 ± 0.33

## ACUGAGCAAUAUUACGACGU
30 °C
  self-splicing fitness (ln): -1.53 ± 0.11
37 °C
  self-splicing fitness (ln): -1.66 ± 0.15
